Measurements as given in US7005258.

Assays:
[1] = test system: starfish p34^cdc2, tyrosine-phosphorylated, from G2-arrested oocytes
[2] = biological target: Xenopus cdc2/cyclin B complex (UniProt P24033)
Xenopus cdc2 (34 kD) = Xenopus cdc2 (34 kD) (UniProt P24033)
[3] = biological target: Xenopus cdc2 from prophase oocytes, tyrosine phosphorylated (UniProt P24033)
[4] = biological target: Xenopus cdc2 (34 kD) (Xenopus laevis) (UniProt P24033); test: co-immunoprecipitation, quantified immunoblots, metaphase eggs
Sequence of Xenopus cdc2 (34 kD) (Xenopus laevis) (P24033 whole entry): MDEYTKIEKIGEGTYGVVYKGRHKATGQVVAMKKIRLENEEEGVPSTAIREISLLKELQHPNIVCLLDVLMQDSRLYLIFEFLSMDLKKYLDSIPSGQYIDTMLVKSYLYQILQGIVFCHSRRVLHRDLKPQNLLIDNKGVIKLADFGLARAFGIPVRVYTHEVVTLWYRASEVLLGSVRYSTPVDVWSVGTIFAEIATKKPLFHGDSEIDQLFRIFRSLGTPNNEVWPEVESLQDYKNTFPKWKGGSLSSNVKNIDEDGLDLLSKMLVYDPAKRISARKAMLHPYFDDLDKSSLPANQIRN

[5] = biological target: Xenopus cyclin B2 (Xenopus laevis) (UniProt P13351); test: co-immunoprecipitation with anti-cdc25 antibody against p13-Sepharose precipitate as total, quantified immunoblot
Sequence of Xenopus cyclin B2 (Xenopus laevis) (P13351 whole entry, the tested form may be a part): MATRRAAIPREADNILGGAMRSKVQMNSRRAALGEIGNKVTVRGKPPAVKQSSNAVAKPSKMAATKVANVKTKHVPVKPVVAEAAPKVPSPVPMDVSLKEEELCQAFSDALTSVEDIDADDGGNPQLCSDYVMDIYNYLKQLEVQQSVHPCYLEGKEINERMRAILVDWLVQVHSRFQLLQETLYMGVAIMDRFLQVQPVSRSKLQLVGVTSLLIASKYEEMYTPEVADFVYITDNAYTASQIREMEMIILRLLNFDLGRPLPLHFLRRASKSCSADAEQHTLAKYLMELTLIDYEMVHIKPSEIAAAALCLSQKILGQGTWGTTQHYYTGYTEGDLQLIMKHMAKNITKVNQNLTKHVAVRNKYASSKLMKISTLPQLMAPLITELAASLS

[6] = biological target: Xenopus cdc2 (34 kD) (Xenopus laevis) (UniProt P24033); test: as above
[7] = biological target: Xenopus cyclin B2 (Xenopus laevis) (UniProt P13351); test: co-immunoprecipitation, quantified immunoblots
[8] = biological target: GST-cdc25 A fusion protein (glutathione-S-transferase / human cdc25 A) (human) [GST: P08515]; test: cell-based or functional assay

Sequence of Xenopus cdc2 (34 kD) (P24033 whole entry): as the sequence (P24033 whole entry) above
Sequence of Xenopus cdc25 protein (p72) (Q13972 whole entry): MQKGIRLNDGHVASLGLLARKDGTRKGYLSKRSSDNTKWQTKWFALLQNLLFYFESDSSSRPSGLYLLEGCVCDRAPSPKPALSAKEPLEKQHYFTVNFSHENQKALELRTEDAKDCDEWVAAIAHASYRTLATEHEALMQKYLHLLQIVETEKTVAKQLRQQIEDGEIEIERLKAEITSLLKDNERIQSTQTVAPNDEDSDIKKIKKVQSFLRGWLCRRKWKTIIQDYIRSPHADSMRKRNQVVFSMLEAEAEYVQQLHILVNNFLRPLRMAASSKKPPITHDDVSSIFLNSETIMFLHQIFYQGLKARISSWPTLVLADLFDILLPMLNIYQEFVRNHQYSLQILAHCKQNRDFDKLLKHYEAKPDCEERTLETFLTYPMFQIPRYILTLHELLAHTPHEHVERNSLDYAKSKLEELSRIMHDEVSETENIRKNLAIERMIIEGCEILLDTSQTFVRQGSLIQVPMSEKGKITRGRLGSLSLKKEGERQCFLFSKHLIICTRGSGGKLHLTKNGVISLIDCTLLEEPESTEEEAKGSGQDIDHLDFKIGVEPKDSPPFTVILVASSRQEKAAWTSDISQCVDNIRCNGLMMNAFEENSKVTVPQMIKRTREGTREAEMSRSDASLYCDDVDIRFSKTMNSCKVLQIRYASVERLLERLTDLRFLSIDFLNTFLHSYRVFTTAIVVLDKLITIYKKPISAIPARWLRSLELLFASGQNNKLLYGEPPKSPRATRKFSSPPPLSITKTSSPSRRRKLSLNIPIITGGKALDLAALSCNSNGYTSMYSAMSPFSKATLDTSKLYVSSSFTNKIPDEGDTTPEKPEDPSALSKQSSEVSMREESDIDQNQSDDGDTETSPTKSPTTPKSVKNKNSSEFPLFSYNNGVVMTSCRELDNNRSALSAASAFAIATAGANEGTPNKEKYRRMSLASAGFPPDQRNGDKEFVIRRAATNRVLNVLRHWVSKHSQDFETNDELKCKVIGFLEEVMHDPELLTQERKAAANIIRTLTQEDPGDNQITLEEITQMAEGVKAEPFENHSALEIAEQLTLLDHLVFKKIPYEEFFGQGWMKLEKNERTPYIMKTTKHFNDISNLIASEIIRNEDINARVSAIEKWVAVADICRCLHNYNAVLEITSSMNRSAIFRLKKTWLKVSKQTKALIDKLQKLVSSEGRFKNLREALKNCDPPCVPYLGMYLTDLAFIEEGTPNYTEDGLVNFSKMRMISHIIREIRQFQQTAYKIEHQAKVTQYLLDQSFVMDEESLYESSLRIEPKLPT
Sequence of Xenopus cdc2 from prophase oocytes, tyrosine phosphorylated (P24033 whole entry): as the sequence (P24033 whole entry) above
Sequence of Xenopus cdc2/cyclin B complex (P24033 whole entry, chain 1 of 2): as the sequence (P24033 whole entry) above
Sequence of Xenopus cdc2/cyclin B complex (chain, as listed by the source, chain 2 of 2): as the sequence (P13351 whole entry, the tested form may be a part) above

## GST-cdc25 A fusion protein (glutathione-S-transferase / human cdc25 A)
[1]
  tyrosine dephosphorylation of p34^cdc2: Treatment with purified GST-cdc25A protein induced almost complete tyrosine dephosphorylation of p34^cdc2

## Xenopus cdc25 protein (p72)
[2]
  histone H1 kinase activity of fully activated cdc2/cyclin from metaphase unfertilized eggs: In neither case did p72 have any effect on the histone H1 kinase activity of cdc2
Xenopus cdc2 (34 kD)
  histone H1 kinase activity in anti-cdc25 immunoprecipitates: Histone H1 kinase activity was detected in anti-cdc25 immunoprecipitates from metaphase eggs
  histone H1 kinase activity of cdc2 that is inactive in the absence of cyclin (eggs activated in the presence of cycloheximide): In neither case did p72 have any effect on the histone H1 kinase activity of cdc2
  relative metaphase kinase activity in p13-Sepharose precipitates and anti-cdc25 immunoprecipitates: approximately 20-fold different
[3]
  histone H1 kinase activity of inactive prophase p13-bound cdc2: Both prophase and metaphase cdc25 stimulated histone H1 kinase activity 12-fold

## Xenopus cdc25 protein (p72) (from UniProt Q13972) (enzyme)
[4]
  percent of the cellular content of cdc25 present in anti-cdc2 immunoprecipitates: 20%
  percent of the total cellular cdc2 present in anti-cdc25 immunoprecipitates: 5%
[5]
  fold, cyclin B2 in p13-Sepharose precipitates over cyclin B2 in anti-cdc25 immunoprecipitate: 6 fold
[6]
  fold, cdc2 in p13-Sepharose precipitate over cdc2 in anti-cdc25 immunoprecipitate: 20 fold
[7]
  percent of the full cellular content of cdc25 present in anti-cyclin B2 immunoprecipitates: 20%
  percent of the total population of cyclin B2 associated with cdc25: 17%

## human cyclin B1 expressed as fusion protein with GST (from UniProt P14635 1-433)
[8]
  amount of cyclin B1 at which activation of cdc25 A (10 pmoles) plateaus, RCML phosphatase assay: 10 pmol
  phosphatase activity of cdc25 A in the presence of p13: 8 fold
  tyrosine phosphatase activity of cdc25 A against 32P-labelled RCML: 4 fold

## human cyclin B2 expressed as fusion protein with GST (from UniProt O95067 1-398)
[8]
  tyrosine phosphatase activity of cdc25 A against 32P-labelled RCML: 4 fold
